Results: publication PMC6474348

Key:
[1] = molecular target: maltose binding protein (MBP)-batVP35 (Myotis lucifigus); test: SEC-MALS
[2] = molecular target: eVP35 IID (MBP-eVP35 215-240 as printed) (Ebola virus, UniProt Q05127 215-340); test: filter binding

Molecule | stoichiometry N [1] | binding signal [2]
maltose binding protein (MBP)-batVP35 (natural protein) | 4 | –
8 bp dsRNA (dsRNA) RNA 1: CGCAUGCG RNA 2: CGCAUGCG | – | 1 fraction relative to eVP35
